Assay [1] concerns the target T1, human MAdCAM (human, UniProt Q13477 19-317, limits assumed).
T1 construct: also called huMAdCAM; human MAdCAM-1
T1 sequence (looked up): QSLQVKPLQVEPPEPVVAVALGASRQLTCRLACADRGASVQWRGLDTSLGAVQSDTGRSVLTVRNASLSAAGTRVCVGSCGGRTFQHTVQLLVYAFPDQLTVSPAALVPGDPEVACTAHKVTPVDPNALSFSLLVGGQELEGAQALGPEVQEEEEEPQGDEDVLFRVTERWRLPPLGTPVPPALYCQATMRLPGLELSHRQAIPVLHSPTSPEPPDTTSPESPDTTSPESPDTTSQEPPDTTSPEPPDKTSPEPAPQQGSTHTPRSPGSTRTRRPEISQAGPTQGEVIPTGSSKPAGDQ
The experiment in a line: BLI (Octet). A general note: Biolayer interferometry detects binding as a change in optical thickness at a sensor tip.

The target of assay [2] is T2, mouse MAdCAM (mouse, UniProt Q61826 22-365, limits assumed).
T2 construct: also called mouse MAdCAM-1; muMAdCAM
T2 sequence (looked up): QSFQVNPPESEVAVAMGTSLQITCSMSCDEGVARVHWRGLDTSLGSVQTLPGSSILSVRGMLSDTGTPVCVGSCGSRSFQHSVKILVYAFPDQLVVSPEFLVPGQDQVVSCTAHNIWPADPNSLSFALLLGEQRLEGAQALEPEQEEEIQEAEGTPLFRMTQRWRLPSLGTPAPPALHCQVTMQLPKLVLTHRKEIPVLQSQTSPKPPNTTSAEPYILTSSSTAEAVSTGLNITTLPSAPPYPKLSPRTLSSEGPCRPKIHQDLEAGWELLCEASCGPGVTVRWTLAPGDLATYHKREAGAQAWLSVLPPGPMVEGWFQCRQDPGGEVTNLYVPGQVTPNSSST
The experiment in a line: BLI (Octet), binder on AHC tips. In short, it runs like this: (§1)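 Octet96 RED assay with anti-human IgG Fc biosensors equilibrated 20 minutes in assay buffer. Test article at 10 μg/mL in assay buffer was loaded onto tips for 240 s. Association with MAdCAM lasted 120 s and dissociation in assay buffer 120 s; MAdCAM-1 was a seven-point serial dilution from 200 nM down to 3.13 nM. Kinetic rates and dissociation constant came from a global one-to-one fit in the Octet data analysis software.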

Assay [3] deals with T1, human MAdCAM. The experiment in a line: BLI (Octet), binder on AHC tips. The procedure, abridged: as §1
The target in assay [4] is T2, mouse MAdCAM. Put plainly: BLI (Octet).
A further assay has as its target T3, cyno MAdCAM (cynomolgus).
T3 construct: also called cynomolgus MAdCAM
Put plainly: BLI (Octet).

Substitutions are numbered along the chain they refer to.

In general, Kd refers to the free concentration of one partner at which half of the binding sites on the other are occupied at equilibrium, for simple one-to-one binding. As a reminder, the koff is a measure of how fast the partners let go of each other. A higher koff goes with a short-lived complex. In general, kon refers to the second-order rate constant of association. Higher therefore signals faster complex formation.

B1: PMAB15 (bispecific antibody, human IgG1, kappa)
heavy: EVQLLESGGGLVQPGGSLRLSCAASGFTFSSYDMSWVRQAPGKGLEWVSGITISGGSTYYADSVKGRFTISRDNSKNTLYLQMNSLRAEDTAVYYCARGRGGSGWLDYWGQGTLVTVSSASTKGPSVFPLAPSSKSTSGGTAALGCLVKDYFPEPVTVSWNSGALTSGVHTFPAVLQSSGLYSLSSVVTVPSSSLGTQTYICNVNHKPSNTKVDKKVEPKSCDKTHTCPPCPAPEAAGAPSVFLFPPKPKDTLMISRTPEVTCVVVDVSHEDPEVKFNWYVDGVEVHNAKTKPREEQYNSTYRVVSVLTVLHQDWLNGKEYKCKVSNKALPAPIEKTISKAKGQPREPQVYTLPPSREEMTKNQVSLTCLVKGFYPSDIAVEWESNGQPENNYKTTPPVLDSDGSFFLYSKLTVDKSRWQQGNVFSCSVMHEALHNHYTQKSLSLSPGGGGGSGGGGSGGGGSEVQLLESGGGLVQPGGSLRLSCAASGFTFSSYWMHWVRQAPGKGLEWVSAISGSGGSTYYADSVKGRFTISRDNSKNTLYLQMNSLRAEDTAVYYCARDRPYYYDMDVWGKGTTVTVSSGGGGSGGGGSGGGGSGGGGSDIQMTQSPSSLSASVGDRVTITCRASQSISSSLAWYQQKPGKAPKLLIYAASSLQSGVPSRFSGSGSGTDFTLTISSLQPEDFATYYCQQYKSYPVTFGQGTKVEIK
light: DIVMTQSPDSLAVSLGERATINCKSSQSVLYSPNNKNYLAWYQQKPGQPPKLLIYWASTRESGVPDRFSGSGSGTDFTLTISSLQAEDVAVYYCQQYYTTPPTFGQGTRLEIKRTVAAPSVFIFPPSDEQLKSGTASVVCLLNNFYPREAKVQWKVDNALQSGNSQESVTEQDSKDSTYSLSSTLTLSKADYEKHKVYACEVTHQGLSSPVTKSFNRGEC
In the case of B1, in the assay with human MAdCAM [1], binding was put at a Kd of 73.1 nM, the koff was determined as 0.0839 s⁻¹, the kon was determined as 1.15e+06 M⁻¹ s⁻¹ and the response worked out at 0.0655.

B2: PMAB17 (bispecific antibody, human IgG1, kappa)
heavy: B1 heavy with L114D, Y566G, D568Y
light: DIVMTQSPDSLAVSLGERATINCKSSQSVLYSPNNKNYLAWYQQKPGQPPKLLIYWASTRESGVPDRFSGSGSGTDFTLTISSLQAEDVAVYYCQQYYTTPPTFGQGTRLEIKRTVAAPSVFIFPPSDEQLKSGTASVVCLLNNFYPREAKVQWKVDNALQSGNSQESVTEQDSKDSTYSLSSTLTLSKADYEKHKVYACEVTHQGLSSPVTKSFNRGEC
With B2, in the assay with human MAdCAM [1], the Kd came to 17.1 nM, the koff amounted to 0.0636 s⁻¹, the kon is 3.73e+06 M⁻¹ s⁻¹ and the response was determined as 0.0416.

B3: PMAB37 (bispecific antibody, human IgG1, kappa)
heavy: EVQLLESGGGLVQPGGSLRLSCAASGFTFSNSDMSWVRQAPGKGLEWVSGITISGGSTYYADSVKGRFTISRDNSKNTLYLQMNSLRAEDTAVYYCARGRGGSGWLDYWGQGTLVTVSSASTKGPSVFPLAPSSKSTSGGTAALGCLVKDYFPEPVTVSWNSGALTSGVHTFPAVLQSSGLYSLSSVVTVPSSSLGTQTYICNVNHKPSNTKVDKKVEPKSCDKTHTCPPCPAPEAAGAPSVFLFPPKPKDTLMISRTPEVTCVVVDVSHEDPEVKFNWYVDGVEVHNAKTKPREEQYNSTYRVVSVLTVLHQDWLNGKEYKCKVSNKALPAPIEKTISKAKGQPREPQVYTLPPSREEMTKNQVSLTCLVKGFYPSDIAVEWESNGQPENNYKTTPPVLDSDGSFFLYSKLTVDKSRWQQGNVFSCSVMHEALHNHYTQKSLSLSPGGGGGSGGGGSGGGGSEVQLLESGGGLVQPGGSLRLSCAASGFTFSDFWMHWVRQAPGKGLEWISYISGDSGYTNYADSVKGRFTISRDNSKNTLYLQMNSLRAEDTAVYYCARDRPYYYYMDVWGKGTTVTVSSGGGGSGGGGSGGGGSGGGGSDIQMTQSPSSLSASVGDRVTITCRASQSVSSSLAWYQQKPGKAPKLLIYAASSLQSGVPSRFSGSGSGTDFTLTISSLQPEDFATYYCQQYKSYPVTFGQGTKVEIK
light: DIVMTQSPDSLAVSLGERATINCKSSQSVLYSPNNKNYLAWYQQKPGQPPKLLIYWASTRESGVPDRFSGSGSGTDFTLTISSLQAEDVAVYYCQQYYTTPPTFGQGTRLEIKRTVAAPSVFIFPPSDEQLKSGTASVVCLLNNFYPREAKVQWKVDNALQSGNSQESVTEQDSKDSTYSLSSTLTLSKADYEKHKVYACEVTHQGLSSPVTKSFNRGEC
With B3, in the assay with mouse MAdCAM [2], the Kd is 176 nM, the koff was 0.0178 s⁻¹, the kon is 101000 M⁻¹ s⁻¹ and the response was found to be 0.152. In the assay with human MAdCAM [3], this molecule gave a Kd of 285 nM, a koff of 0.0838 s⁻¹ and an on-rate constant (kon) of 294000 M⁻¹ s⁻¹.

B4: PMAB27 (bispecific antibody, human IgG1, kappa)
heavy: B3 heavy with Y520S, S633R
light: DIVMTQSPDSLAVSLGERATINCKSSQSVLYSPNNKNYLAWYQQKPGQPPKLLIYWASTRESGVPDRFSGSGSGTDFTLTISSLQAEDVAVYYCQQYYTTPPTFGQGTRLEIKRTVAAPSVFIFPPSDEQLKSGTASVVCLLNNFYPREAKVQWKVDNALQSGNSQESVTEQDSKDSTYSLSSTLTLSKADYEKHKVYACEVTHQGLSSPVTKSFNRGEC
Take B4: in the assay with mouse MAdCAM [2], binding was put at a Kd of 1020 nM, the koff worked out at 0.00469 s⁻¹, the kon is 4580 M⁻¹ s⁻¹ and the response amounted to 0.0278. In the assay with human MAdCAM [3], this molecule registered a Kd of 92.2 nM and a koff of 0.128 s⁻¹.

B5: PMAB36 (bispecific antibody, human IgG1, kappa)
heavy: B3 heavy with V631I, S633R
light: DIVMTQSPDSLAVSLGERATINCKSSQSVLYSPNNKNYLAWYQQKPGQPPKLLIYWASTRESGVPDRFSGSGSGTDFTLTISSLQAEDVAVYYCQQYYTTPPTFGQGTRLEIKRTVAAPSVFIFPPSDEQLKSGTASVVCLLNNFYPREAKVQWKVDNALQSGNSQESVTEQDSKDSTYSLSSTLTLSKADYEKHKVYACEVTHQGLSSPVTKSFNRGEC
Take B5: in the assay with mouse MAdCAM [2], the affinity, expressed as Kd, was 206 nM; the koff amounted to 0.0251 s⁻¹; the kon amounted to 122000 M⁻¹ s⁻¹; the response was found to be 0.169. For the same molecule, in the assay with human MAdCAM [3], the affinity, expressed as Kd, was 109 nM; the koff is 0.0325 s⁻¹; the kon was determined as 298000 M⁻¹ s⁻¹.

B6: PMAB25 (bispecific antibody, human IgG1, kappa)
heavy: B3 heavy with D517S, S633R
light: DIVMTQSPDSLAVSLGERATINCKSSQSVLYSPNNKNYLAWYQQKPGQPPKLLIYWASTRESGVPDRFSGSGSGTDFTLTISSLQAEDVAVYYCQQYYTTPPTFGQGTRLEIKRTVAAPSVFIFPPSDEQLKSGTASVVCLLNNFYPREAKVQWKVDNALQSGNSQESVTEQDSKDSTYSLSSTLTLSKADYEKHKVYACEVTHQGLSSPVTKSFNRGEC
In the assay with mouse MAdCAM [2], B6 had a Kd of 115 nM, a koff of 0.012 s⁻¹, a kon of 105000 M⁻¹ s⁻¹ and a response of 0.133. In addition, in the assay with human MAdCAM [3], the Kd turned out to be 43.6 nM, the koff came to 0.0212 s⁻¹ and the kon worked out at 486000 M⁻¹ s⁻¹.

B7: PMAB23 (bispecific antibody, human IgG1, kappa)
heavy: B3 heavy with I511V, S633R
light: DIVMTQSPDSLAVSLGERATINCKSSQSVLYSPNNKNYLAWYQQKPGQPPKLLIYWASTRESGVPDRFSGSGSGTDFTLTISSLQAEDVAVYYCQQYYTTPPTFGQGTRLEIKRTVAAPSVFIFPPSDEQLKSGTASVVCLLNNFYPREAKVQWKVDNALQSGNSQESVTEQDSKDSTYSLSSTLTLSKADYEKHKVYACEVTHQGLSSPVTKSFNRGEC
For B7, in the assay with mouse MAdCAM [2], binding was put at a Kd of 141 nM, the koff amounted to 0.0178 s⁻¹, the kon turned out to be 126000 M⁻¹ s⁻¹ and the response worked out at 0.141. Further, in the assay with human MAdCAM [3], the Kd turned out to be 110 nM, the koff came out at 0.0389 s⁻¹ and the kon worked out at 355000 M⁻¹ s⁻¹.

B8: PMAB42 (bispecific antibody, human IgG1, kappa)
heavy: B3 heavy with S633R, Y696T
light: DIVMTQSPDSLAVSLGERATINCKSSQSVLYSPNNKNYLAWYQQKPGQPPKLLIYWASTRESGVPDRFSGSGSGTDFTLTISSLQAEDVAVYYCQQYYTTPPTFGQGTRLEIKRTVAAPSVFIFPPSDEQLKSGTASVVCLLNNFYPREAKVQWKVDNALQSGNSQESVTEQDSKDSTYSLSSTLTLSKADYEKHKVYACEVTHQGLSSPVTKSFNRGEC
Turning to B8, in the assay with mouse MAdCAM [2], the Kd was found to be 105 nM, the koff amounted to 0.017 s⁻¹, the kon amounted to 162000 M⁻¹ s⁻¹ and the response was 0.129. In the assay with human MAdCAM [3], the Kd amounted to 395 nM, the koff came out at 0.114 s⁻¹ and the kon worked out at 288000 M⁻¹ s⁻¹.

B9: PMAB20 (bispecific antibody, human IgG1, kappa)
heavy: B3 heavy with F495Y, S633R
light: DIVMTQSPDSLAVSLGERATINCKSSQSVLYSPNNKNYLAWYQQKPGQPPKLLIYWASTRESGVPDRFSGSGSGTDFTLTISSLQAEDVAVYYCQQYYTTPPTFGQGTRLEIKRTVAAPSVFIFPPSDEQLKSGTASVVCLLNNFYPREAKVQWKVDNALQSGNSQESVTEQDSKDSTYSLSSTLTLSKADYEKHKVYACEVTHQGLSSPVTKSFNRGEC
In the assay with mouse MAdCAM [2], B9 registered a dissociation constant Kd of 118 nM, a koff of 0.0193 s⁻¹, a kon of 163000 M⁻¹ s⁻¹ and a response of 0.153. Further, in the assay with human MAdCAM [3], the Kd amounted to 90.5 nM, the koff is 0.0372 s⁻¹ and the kon stood at 411000 M⁻¹ s⁻¹.

B10: PMAB16 (bispecific antibody, human IgG1, kappa)
heavy: B1 heavy with A513Y, S520Y, Y522N
light: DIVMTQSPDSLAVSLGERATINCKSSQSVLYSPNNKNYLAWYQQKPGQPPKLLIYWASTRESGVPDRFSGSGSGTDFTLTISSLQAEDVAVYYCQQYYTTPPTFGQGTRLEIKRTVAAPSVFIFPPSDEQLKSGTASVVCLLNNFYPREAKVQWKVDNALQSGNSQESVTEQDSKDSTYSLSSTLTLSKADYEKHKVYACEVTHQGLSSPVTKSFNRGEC
In the assay with mouse MAdCAM [4], B10 showed a Kd of 334 nM, a koff of 0.0828 s⁻¹, a kon of 248000 M⁻¹ s⁻¹ and a response of 0.0407. For the same molecule, in the assay with human MAdCAM [1], the affinity, expressed as Kd, was 134 nM; the koff was found to be 0.0631 s⁻¹; the kon turned out to be 472000 M⁻¹ s⁻¹; the response was found to be 0.186.

B11: PMAB56 (bispecific antibody, human IgG1, kappa)
heavy: B1 heavy with L114T, A513Y, S520Y, Y522N, M569L
light: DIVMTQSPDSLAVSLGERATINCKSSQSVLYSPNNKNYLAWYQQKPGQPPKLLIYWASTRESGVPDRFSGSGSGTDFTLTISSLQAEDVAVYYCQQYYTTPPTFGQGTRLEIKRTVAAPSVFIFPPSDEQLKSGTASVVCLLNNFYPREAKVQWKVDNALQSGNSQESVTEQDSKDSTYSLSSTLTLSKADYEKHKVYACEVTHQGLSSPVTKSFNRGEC
In the assay with mouse MAdCAM [4], B11 yielded a Kd of 161 nM, a koff of 0.00147 s⁻¹ and a kon of 9120 M⁻¹ s⁻¹. In the assay with cyno MAdCAM, binding was put at a Kd of 96.5 nM, the koff was 0.0591 s⁻¹ and the kon was found to be 612000 M⁻¹ s⁻¹. In the assay with human MAdCAM [1], this molecule showed a Kd of 208 nM, a koff of 0.00491 s⁻¹ and a kon of 23600 M⁻¹ s⁻¹.

B12: PMAB28 (bispecific antibody, human IgG1, kappa)
heavy: B3 heavy with N522Y, S633R
light: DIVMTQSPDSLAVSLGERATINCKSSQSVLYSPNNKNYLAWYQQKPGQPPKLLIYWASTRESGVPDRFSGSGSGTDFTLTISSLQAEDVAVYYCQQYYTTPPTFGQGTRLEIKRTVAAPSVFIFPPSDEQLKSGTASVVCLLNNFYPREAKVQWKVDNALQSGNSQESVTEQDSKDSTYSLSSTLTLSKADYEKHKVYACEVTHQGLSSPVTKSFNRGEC
Take B12: in the assay with mouse MAdCAM [2], the affinity, expressed as Kd, was 103 nM; the koff is 0.00886 s⁻¹; the kon was 85900 M⁻¹ s⁻¹; the response is 0.083. In the assay with human MAdCAM [3], this molecule returned a Kd of 86.2 nM, a koff of 0.0902 s⁻¹ and a kon of 1.05e+06 M⁻¹ s⁻¹.

B13: PMAB26 (bispecific antibody, human IgG1, kappa)
heavy: B3 heavy with S518G, S633R
light: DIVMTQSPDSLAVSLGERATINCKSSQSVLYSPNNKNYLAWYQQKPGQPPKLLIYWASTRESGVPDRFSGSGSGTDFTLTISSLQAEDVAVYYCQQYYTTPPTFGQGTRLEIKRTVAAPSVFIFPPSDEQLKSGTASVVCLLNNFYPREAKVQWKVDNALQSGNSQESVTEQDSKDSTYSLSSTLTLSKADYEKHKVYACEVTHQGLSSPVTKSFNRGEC
Turning to B13, in the assay with mouse MAdCAM [2], binding was characterised by a dissociation constant (Kd) of 134 nM, the koff was determined as 0.0118 s⁻¹, the kon is 87900 M⁻¹ s⁻¹ and the response was 0.132. In the assay with human MAdCAM [3], the Kd worked out at 138 nM, the koff turned out to be 0.0658 s⁻¹ and the kon was found to be 476000 M⁻¹ s⁻¹.

B14: PMAB24 (bispecific antibody, human IgG1, kappa)
heavy: B3 heavy with Y513A, S633R
light: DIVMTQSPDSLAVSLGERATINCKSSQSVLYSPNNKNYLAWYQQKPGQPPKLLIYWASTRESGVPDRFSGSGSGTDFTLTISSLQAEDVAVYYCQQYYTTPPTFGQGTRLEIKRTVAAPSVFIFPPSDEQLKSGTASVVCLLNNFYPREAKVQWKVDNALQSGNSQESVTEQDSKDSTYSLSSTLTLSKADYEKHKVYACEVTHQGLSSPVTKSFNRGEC
Take B14: in the assay with mouse MAdCAM [2], the Kd was 52.4 nM, the koff is 0.00596 s⁻¹, the kon is 114000 M⁻¹ s⁻¹ and the response stood at 0.0549. Besides, in the assay with human MAdCAM [3], the Kd turned out to be 33.2 nM, the koff came to 0.0134 s⁻¹ and the kon came to 404000 M⁻¹ s⁻¹.

B15: PMAB53 (bispecific antibody, human IgG1, kappa)
heavy: B1 heavy with L114T, A513Y, S520Y, Y522N, M569I
light: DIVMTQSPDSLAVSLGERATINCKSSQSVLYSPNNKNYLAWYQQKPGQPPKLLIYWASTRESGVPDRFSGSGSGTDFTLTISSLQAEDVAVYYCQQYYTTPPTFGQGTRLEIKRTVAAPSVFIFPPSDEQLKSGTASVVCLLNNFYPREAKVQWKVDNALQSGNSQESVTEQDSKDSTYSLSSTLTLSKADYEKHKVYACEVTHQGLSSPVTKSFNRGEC
In the assay with mouse MAdCAM [4], B15 came in with a Kd of 1740 nM, a koff of 0.217 s⁻¹ and a kon of 125000 M⁻¹ s⁻¹. In the assay with cyno MAdCAM, this molecule returned a Kd of 379 nM, a koff of 0.0217 s⁻¹ and a kon of 57100 M⁻¹ s⁻¹. In the assay with human MAdCAM [1], this molecule returned a Kd of 49.7 nM, an off-rate (koff) of 0.000716 s⁻¹ and a kon of 14400 M⁻¹ s⁻¹.

Source of the values: US20240010722A1 (published 2024).
